According to the supplement of paper PMC12042874:
± gives the uncertainty stated by the source.

Experiment: amyloid nucleation score (Sup35N fusion, yeast selection) (log enrichment); library NNK2; higher = more nucleation; inactive = no reads after selection
Summary of the method: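 Peptides of 20 random codons fused to Sup35N were expressed in psi-negative yeast, induced 24 hours with 100 μM copper sulfate, then grown 7 days at 30°C on medium lacking adenine and uracil. Input and output plasmid inserts were Illumina-sequenced. Nucleation score is the DiMSum log enrichment of output over input reads, centred on the mode score of non-aggregating sequences, excluding sequences with under 100 input reads. Random libraries had three technical output replicates.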

Row | Substance | amyloid nucleation score
1 | ALMNPHFFSWCLKMVGYGYR | inactive
2 | YTVYFSVGVVVE | -1.42 ± 0.49
3 | SPFFVMLIITFTRMVEDLRM | -0.683 ± 1.1
4 | TPENFHLR | inactive
5 | WHNITWYMFGPFMPGGEMLM | 0.446 ± 0.5
6 | SSDNTQYTETRYSYGFLIKL | 0.776 ± 0.56
7 | ICFWMACKIECCQQRTNFVS | -0.139 ± 0.26
8 | TFVGSFEILAGNVLCVNKTK | 6.031 ± 0.048
9 | VSLSLC | -0.288 ± 0.5
10 | SFLLRWSRFVYICYSICCMI | -1.02 ± 0.55
11 | RIVIFFFTCIYPIWIRNTWP | -1.18 ± 1.1
12 | TFNLVILGVGHSHHFQRNNH | 8.269 ± 0.046
13 | LGYDDGYVAGRGKADMFSLD | inactive
14 | SYGMRTEWTVCIAIRLHASN | 1.31 ± 0.52
15 | LRLFYHVR | -0.641 ± 0.33
16 | TNCTDEGIILCHP | -0.19 ± 1.1
17 | HGLYCYPGYSDQCVTFVHGY | inactive
18 | GLLVELWSLLIIRYNLSAYL | -0.841 ± 0.48
19 | PAHVSYILSLCLINVC | 4.34 ± 0.072
20 | TCVALSYLVGGSALNS | -0.818 ± 0.78
21 | YYSVGNAGL | -1.3 ± 0.39
22 | YEVHDDLYYTNKLRTRANGV | 1.46 ± 0.43

Row | Substance | amyloid nucleation score
23 | ICSPVQSAPSRAEKND | -0.297 ± 0.45
24 | VVILFVLGLVNPELS | 0.649 ± 0.55
25 | LCLIGRYRMSERALRLRWLV | 2.54 ± 0.11
26 | YAIFYGRLNMCGSGLSVPRE | 0.381 ± 0.62
27 | ASDVSRVGVGRKMIFSFVRL | -0.031 ± 1
28 | CCIFWYCRADAINNCLARFD | 7.154 ± 0.041
29 | IMSMGGVLMFWS | 3.66 ± 0.12
30 | NERQEIIPDSSPETHVSNIT | 1.12 ± 0.12
31 | TSLYRVSKM | -0.945 ± 0.76
32 | LTLAS | 0.49 ± 0.25
33 | AMLDLRINTSRAGSHSRVVT | 2.81 ± 0.069
34 | ILLRWNSTSTEVHHVGPTWV | 0.872 ± 0.42
35 | PNIKNIT | 2.38 ± 0.24
36 | FFYRVPDITSDAGITQLLAQ | 5.483 ± 0.048
37 | QWIAGVYV | 3.23 ± 0.048
38 | KDLEFSISLMKVPNIWWHYR | 1.04 ± 0.17
39 | GRCYDFCHFYKQGRYSLGWV | -1.06 ± 0.63
40 | LFNEDACTFLTMCANIKVGQ | 4.97 ± 0.081
41 | KWIYQIFPVMALECKGVLH | 2.85 ± 0.15
42 | FIRYS | 1.79 ± 0.084
43 | CPVFGSIGGLISNSWYVTLM | 5.335 ± 0.046
44 | KTFFVYIRSNYCV | -1.24 ± 0.62

Row | Substance | amyloid nucleation score
45 | FINVLDSNLAQLWLLFTSWR | 1.51 ± 0.14
46 | YIIFGSRLVDRGSLQ | 2.95 ± 0.16
47 | LSHMLDLRGNNKSFWCYVEG | 0.89 ± 0.44
48 | YLRRGNKLCESTLVVTCTMV | -0.087 ± 1
49 | LWLKEVYRWMIGGTRYL | -0.618 ± 0.76
50 | WYSVLSFDSFFWPWALLVVY | -1.16 ± 0.49
51 | LFLLIIFLCTTYVVIKDPTH | 2.73 ± 0.12
52 | SCLTNGY | -0.154 ± 0.38
53 | FNVSYSISMMLKRGVCAHCW | 6.038 ± 0.034
54 | CGTGARVCYCYGFKLSSARG | 0.965 ± 0.6
55 | CECVFFVQGVLRVGVLYDKF | inactive
56 | LFLSLRVRRYVQHKKSGSAG | 0.082 ± 1.1
57 | HKRCVITLLWADL | 0.344 ± 0.41
58 | STEAVMLQGVFHRSCCR | 0.761 ± 0.46
59 | IMNGLMDFMLTKVLKDMFNW | -0.249 ± 1.1
60 | VCRPDINVAHHPGFNFIVRS | inactive
61 | YSFVCIRIGPLKEVCKLNSC | -0.774 ± 1.1
62 | SWETKVHIYMTDMLFSRHMS | 2.63 ± 0.086
63 | FYCSNSKFW | 3.5 ± 0.074
64 | GALRGGVTRLQILRCFFYFW | 0.491 ± 0.74
65 | CRVCRNWIWGTLSSGVTSRL | -0.61 ± 0.49
66 | ETSMYVYLGI | -0.384 ± 0.35

Row | Substance | amyloid nucleation score
67 | RSYQMSGPIALRKWEEEWAE | 0.611 ± 0.46
68 | MYILMKDIRDFIFSSRPIIS | inactive
69 | LTFNLLSTLTFVRVLVPPLA | 0.803 ± 0.34
70 | LELVCRPISMALLEEWKGTR | 0.393 ± 0.48
71 | TSSYTWGVEPDASRTILVDT | 0.4 ± 0.32
72 | VLWHTGDMDMRVNRANELVS | 4.52 ± 0.046
73 | TVFSIMLLSRM | -0.002 ± 1
74 | KVVITQSRVGTLESVKVFYV | 1.77 ± 0.19
75 | YYQVVTNNLSI | 0.129 ± 0.76
76 | LESVWHILGGFGIMVFYITK | inactive
77 | HNSMSWFR | 4.45 ± 0.058
78 | SWCFYMKGEWWYLLFHSNRS | -1.73 ± 0.55
79 | FDQTFEDWWPAYNHSRFNQH | 0.352 ± 0.51
80 | YTANLWYQAWMYSYCENPPT | inactive
81 | KVLRLIRY | 1.25 ± 0.48
82 | YFNRIYYTDIYNMVALVICF | 4.4 ± 0.12
83 | PYFCDIMNGTCRYSLYGFSM | 0.37 ± 0.51
84 | PMISFSLTMRDNCYSGWLCN | 1.63 ± 0.21
85 | LASTALVLDP | 1.14 ± 0.31
